# Data: patent publication US11034762 (CENTIVAX, dated 2021)
# T1: MERS Receptor Binding Domain (RBD) protein (MERS virus, UniProt K9N5Q8 367-606)
# T1 construct: also called Middle East Respiratory Syndrome (MERS) virus
# T1 sequence: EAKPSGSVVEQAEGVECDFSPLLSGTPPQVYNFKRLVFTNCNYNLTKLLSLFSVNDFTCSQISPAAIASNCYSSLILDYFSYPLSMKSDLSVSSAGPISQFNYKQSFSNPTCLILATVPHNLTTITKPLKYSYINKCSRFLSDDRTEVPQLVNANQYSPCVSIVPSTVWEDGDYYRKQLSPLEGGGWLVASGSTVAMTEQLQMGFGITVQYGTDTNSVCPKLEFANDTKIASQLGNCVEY
# Experiments:
# [1] = biological target: SARS-CoV-2 Receptor Binding Domain (RBD) protein (SARS-CoV-2, UniProt P0DTC2 319-541)
# [2] = biological target: T2, SARS-CoV-1 Receptor Binding Domain (RBD) protein (SARS-CoV-1, UniProt P59594 306-527); assay: SPR; clone listed as COV2 only at the 21st table, row 16, column 3
# T2 construct: also called SARS1
# [3] = biological target: T1, MERS Receptor Binding Domain (RBD) …; assay: as above
# [4] = biological target: T2, SARS-CoV-1 Receptor Binding Domain …; assay: SPR; clone listed as COV2 only at the 21st table, row 7, column 3
# [5] = biological target: T1, MERS Receptor Binding Domain (RBD) …; assay: as above
# [6] = biological target: T2, SARS-CoV-1 Receptor Binding Domain …; assay: SPR; clone listed as COV2 only at the 21st table, row 28, column 3
# [7] = biological target: T1, MERS Receptor Binding Domain (RBD) …; assay: as above
# [8] = biological target: T2, SARS-CoV-1 Receptor Binding Domain …; assay: SPR; clone listed as COV2 only at the 21st table, row 25, column 3
# [9] = biological target: T1, MERS Receptor Binding Domain (RBD) …; assay: as above
# [10] = biological target: T2, SARS-CoV-1 Receptor Binding Domain …; assay: SPR; clone listed as COV2 only at the 21st table, row 29, column 3
# [11] = biological target: T1, MERS Receptor Binding Domain (RBD) …; assay: as above
# [12] = biological target: T2, SARS-CoV-1 Receptor Binding Domain …; assay: SPR; clone listed as COV2 only at the 21st table, row 24, column 3
# [13] = biological target: T1, MERS Receptor Binding Domain (RBD) …; assay: as above
# [14] = biological target: T2, SARS-CoV-1 Receptor Binding Domain …; assay: SPR; clone listed as COV2 only at the 21st table, row 17, column 3
# [15] = biological target: T1, MERS Receptor Binding Domain (RBD) …; assay: as above
# [16] = biological target: T2, SARS-CoV-1 Receptor Binding Domain …; assay: SPR; clone listed as COV2 only at the 21st table, row 21, column 3
# [17] = biological target: T1, MERS Receptor Binding Domain (RBD) …; assay: as above
# [18] = biological target: T2, SARS-CoV-1 Receptor Binding Domain …; assay: SPR; clone listed as COV2 only at the 21st table, row 27, column 3
# [19] = biological target: T1, MERS Receptor Binding Domain (RBD) …; assay: as above
# [20] = biological target: T2, SARS-CoV-1 Receptor Binding Domain …; assay: SPR; clone listed as COV2 only at the 21st table, row 19, column 3
# [21] = biological target: T1, MERS Receptor Binding Domain (RBD) …; assay: as above
# [22] = biological target: T2, SARS-CoV-1 Receptor Binding Domain …; assay: SPR; clone listed as COV2 only at the 21st table, row 22, column 3
# [23] = biological target: T1, MERS Receptor Binding Domain (RBD) …; assay: as above
# [24] = biological target: T2, SARS-CoV-1 Receptor Binding Domain …; assay: SPR; clone listed as COV2 only at the 21st table, row 23, column 3
# [25] = biological target: T1, MERS Receptor Binding Domain (RBD) …; assay: as above
# [26] = biological target: T2, SARS-CoV-1 Receptor Binding Domain …; assay: SPR; clone listed as COV2 only at the 21st table, row 26, column 3
# [27] = biological target: T1, MERS Receptor Binding Domain (RBD) …; assay: as above
binder,measurement,setting,value
"COVID19_P09_H09 (scFv, V domains shown) VH: QVQLVQSGAEVKKPGSSVKVSCKASGGTFITYWIYWVRQAPGQGLEWMGIIYPGDGEARYSQKFYGRVTITADESTSTAYMELSSLRSEDTAVYYCAGSGGISTPMDVWGQGTLVTVSS VL: not shown",Kd,[1],35.2 nM
same,koff,[1],0.0154 s⁻¹
same,kon,[1],438000 M⁻¹ s⁻¹
same,binding result,[2],no binding (tested: up to 300 nM)
same,binding result,[3],no binding (tested: up to 300 nM)
"COVID19_P22_E06 (scFv, V domains shown) VH: QVQLVQSGAEVKKPGSSVKVSCKASGGGFITYWIGWVRQAPGQGLEWMGIIYPGDSETRYSQKFQGRVTITADESTSTAYMELSSLRSEDTAVYYCAGGSGISSDMDVWGQGTLVTVSS VL: not shown",Kd,[1],42.7 nM
same,koff,[1],0.0057 s⁻¹
same,kon,[1],130000 M⁻¹ s⁻¹
same,binding result,[4],no binding (tested: up to 300 nM)
same,binding result,[5],no binding (tested: up to 300 nM)
"COVID19_P09_G02 (scFv, V domains shown) VH: QVQLVQSGAEVKKPGSSVKVSCKASGGTFSSYAISWVRQAPGQGLEWMGIIYPGDSTTNYSQKFQGRVTITADESTSTAYMELSSLRSEDTAVYYCAGHWGISTPMDVWGQGTLVTVSS VL: not shown",Kd,[1],1.92 nM
same,koff,[1],0.000262 s⁻¹
same,kon,[1],136000 M⁻¹ s⁻¹
same,binding result,[6],no binding (tested: up to 300 nM)
same,binding result,[7],no binding (tested: up to 300 nM)
"COVID19_P09_B07 (scFv, V domains shown) VH: QVQLVQSGAEVKKPGSSVKVSCKASGGTFSSYAISWVRQAPGQGLEWMGGIIPTLGTANYAQKFQGRVTITADESTSTAYMELSSLRSEDTAVYYCAGSWGISTPMDVWGQGTLVTVSS VL: not shown",Kd,[1],3.66 nM
same,koff,[1],0.000533 s⁻¹
same,kon,[1],146000 M⁻¹ s⁻¹
same,binding result,[8],no binding (tested: up to 300 nM)
same,binding result,[9],no binding (tested: up to 300 nM)
"COVID19_P09_E05 (scFv, V domains shown) VH: QVQLVQSGAEVKKPGSSVKVSCKASGGTFSSYAISWVRQAPGQGLEWMGIIYPGDSTTRYSQKFQGRVTITADESTSTAYMELSSLRSEDTAVYYCYSGSGISTPMDVWGQGTLVTVSS VL: not shown",Kd,[1],0.2 nM
same,koff,[1],5.7e-05 s⁻¹
same,kon,[1],305000 M⁻¹ s⁻¹
same,binding result,[10],no binding (tested: up to 300 nM)
same,binding result,[11],no binding (tested: up to 300 nM)
"COVID19_P09_H08 (scFv, V domains shown) VH: QVQLVQSGAEVKKPGSSVKVSCKASGGTFSSYAISWVRQAPGQGLEWMGGIIPIFGTTNYAQKFQGRVTITADESTSTAYMELSSLRSEDTAVYYCAGEWGISTPMDVWGQGTLVTVSS VL: not shown",Kd,[1],3.25 nM
same,koff,[1],0.00039 s⁻¹
same,kon,[1],120000 M⁻¹ s⁻¹
same,binding result,[12],no binding (tested: up to 300 nM)
same,binding result,[13],no binding (tested: up to 300 nM)
"COVID19_P10_D08 (scFv, V domains shown) VH: QVQLVQSGAEVKKPGSSVKVSCKASGGTFNSHAISWVRQAPGQGLEWMGWINPNSGATNYAQKFQGRVTITADESTSTAYMELSSLRSEDTAVYYCAGGSGISTPVGVWGQGTLVTVSS VL: not shown",Kd,[1],15.2 nM
same,koff,[1],0.00107 s⁻¹
same,kon,[1],70700 M⁻¹ s⁻¹
same,binding result,[14],no binding (tested: up to 300 nM)
same,binding result,[15],no binding (tested: up to 300 nM)
"COVID19_P10_G03 (scFv, V domains shown) VH: QVQLVQSGAEVKKPGSSVKVSCKASGGTFSNSSINWVRQAPGQGLEWMGRINPNSGGTNYAQKFQGRVTITADESTSTAYMELSSLRSEDTAVYYCAGGSGISTPMDVWGQGTLVTVSS VL: not shown",Kd,[1],40.4 nM
same,koff,[1],0.00177 s⁻¹
same,kon,[1],43800 M⁻¹ s⁻¹
same,binding result,[16],no binding (tested: up to 300 nM)
same,binding result,[17],no binding (tested: up to 300 nM)
"COVID19_P21_F11 (scFv, V domains shown) VH: QVQLVQSGAEVKKPGSSVKVSCKASGGTFSSYAISWVRQAPGQGLEWMGIIYPGDSTARYSQKFQGRVTITADESTSTAYMELSSLRSEDTAVYYCAGGSGISTLYDVWGQGTLVTVSS VL: not shown",Kd,[1],≤ 1.1 nM
same,koff,[1],≤ 5.7e-05 s⁻¹
same,kon,[1],52300 M⁻¹ s⁻¹
same,binding result,[18],no binding (tested: up to 300 nM)
same,binding result,[19],no binding (tested: up to 300 nM)
"COVID19_P09_E11 (scFv, V domains shown) VH: QVQLVQSGAEVKKPGSSVKVSCKASGGTFSNHAISWVRQAYGQGLEWMGIIYPGDGTTRYSQKFQGRVTITADESTSTAYMELSSLRSEDTAVYYCAGGSGISTPMDVWGQGTLVTVSS VL: not shown",Kd,[1],0.49 nM
same,koff,[1],0.000123 s⁻¹
same,kon,[1],249000 M⁻¹ s⁻¹
same,binding result,[20],no binding (tested: up to 300 nM)
same,binding result,[21],no binding (tested: up to 300 nM)
"COVID19_P22_E12 (scFv, V domains shown) VH: QVQLVQSGAEVKKPGSSVKVSCKASGGTFSSYAINWVRQAPGQGLEWMGGIIPVLHTVDYAQRLQGRVTITADESTSTAYMELSSLRSEDTAVYYCAGEWGISTPMDVWGQGTLVTVSS VL: not shown",Kd,[1],44 nM
same,koff,[1],0.0089 s⁻¹
same,kon,[1],200000 M⁻¹ s⁻¹
same,binding result,[22],no binding (tested: up to 300 nM)
same,binding result,[23],no binding (tested: up to 300 nM)
"COVID19_P22_F07 (scFv, V domains shown) VH: QVQLVQSGAEVKKPGSSVKVSCKASGGTFSSYAISWVRQAPGQGLEWMGGIIPIFGSTASYAQKFQGRVTITADESTSTAYMELSSLRSEDTAVYYCAGEWGISTPMDVWGQGTLVTVSS VL: not shown",Kd,[1],6.58 nM
same,koff,[1],0.00041 s⁻¹
same,kon,[1],63000 M⁻¹ s⁻¹
same,binding result,[24],no binding (tested: up to 300 nM)
same,binding result,[25],no binding (tested: up to 300 nM)
"COVID19_P09_C09 (scFv, V domains shown) VH: QVQLVQSGAEVKKPGSSVKVSCKASGGTFSSYAISWVRQAPGQGLEWMGIIDPSGGSTSYAQQFQGRVTITADESTSTAYMELSSLRSEDTAVYYCAGGSGISTPMDVWGQGTLVTVSS VL: not shown",Kd,[1],0.99 nM
same,koff,[1],0.000261 s⁻¹
same,kon,[1],264000 M⁻¹ s⁻¹
same,binding result,[26],no binding (tested: up to 300 nM)
same,binding result,[27],no binding (tested: up to 300 nM)
